Test results published in patent US20240252641A1 (TCR2 THERAPEUTICS, published 2024).
Where a chain is given by its changes, count along the chain named.

Columns and labels:
[1] = biological target: T1, CD70 on cells (CHO-CD70, JVM-3, U266, Raji, THP-1, T cells) (human, UniProt P32970 1-193); assay: 1.25 µg/mL scFv on U266 cells
T1 construct: whole, on cells; also called cell-surface CD70
T1 sequence (looked up): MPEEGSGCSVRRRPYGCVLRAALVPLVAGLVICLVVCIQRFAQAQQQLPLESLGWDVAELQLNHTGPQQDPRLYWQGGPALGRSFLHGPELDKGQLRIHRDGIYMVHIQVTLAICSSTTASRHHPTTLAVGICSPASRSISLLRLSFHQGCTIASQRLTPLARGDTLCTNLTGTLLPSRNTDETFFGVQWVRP
Summary of the method: (§1)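 Panning of a naïve human library against the CD70 extracellular domain (aa39-193) yielded human scFv antibodies. Binding to high-CD70 (CHO-CD70, JVM3, U266) and low-CD70 (CHO WT, K562) tumour cell lines was recorded line by line.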

[2] = biological target: T2, human CD70, recombinant, N-terminally biotinylated (residues 39-193) (human, UniProt P32970 39-193, N-terminal biotin); assay: CD27 blocking ELISA, 3 µM scFv, anti-His/HRP
T2 construct: range 39-193; the same entry is used there; also called biotinylated human CD70; CD70 biotin
T2 sequence (looked up): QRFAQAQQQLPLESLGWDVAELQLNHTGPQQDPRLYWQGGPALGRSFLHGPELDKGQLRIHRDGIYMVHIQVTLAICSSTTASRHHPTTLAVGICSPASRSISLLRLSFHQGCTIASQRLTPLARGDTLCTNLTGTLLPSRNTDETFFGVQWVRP
Procedure: Human scFv antibodies binding CD70 were generated by panning a naïve human library with the extracellular domain (aa39-193) of CD70. 53 antibodies were identified. The ability of CD27 to block CD70 binding of the identified antibodies was measured by ELISA using two different assays. In the first assay, CD27 and his-tagged scFv anti-CD70 binders were simultaneously added to surface bound CD70, and the ability of the scFv binders to bind CD70 was detected with anti-His HRP. In the second assay, plate-bound CD70 was pre-incubated with CD27 for 30 minutes, and then additional CD27 and the his-tagged scFv anti-CD70 binder was added. The ability of the scFv binders to bind CD70 was detected with anti-His HRP. FIG. 34 is a schematic of the two different CD27 blocking assays. CD70 affinity was also measured by SPR analysis. scFv antibodies were also tested for their ability to bind tumor cell lines with high (CHO-CD70, JVM3, and U266) and low levels (CHO WT and K562 of CD70 expression. Results for 39 antibodies are shown in Table 1 below.

[3] = biological target: T2, human CD70, recombinant, N-terminally …; assay: CD27 blocking ELISA, 3 µM scFv, strep/HRP
[4] = biological target: T2, human CD70, recombinant, N-terminally …; assay: SPR
Summary of the method: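 Human scFv antibodies came from panning a naïve human library against the CD70 extracellular domain (aa39-193). Their affinity (Kd) for recombinant, N-terminally biotinylated human CD70 was measured by surface plasmon resonance (SPR) analysis.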

[5] = biological target: T1, CD70 on cells (CHO-CD70, JVM-3, U266, …); assay: 1.25 µg/mL scFv on CHO-CD70 cells
Summary of the method: as §1

[6] = biological target: T1, CD70 on cells (CHO-CD70, JVM-3, U266, …); assay: 1.25 µg/mL scFv on JVM-3 cells
Summary of the method: as §1

[7] = biological target: T1, CD70 on cells (CHO-CD70, JVM-3, U266, …); assay: on Raji cells
[8] = biological target: T1, CD70 on cells (CHO-CD70, JVM-3, U266, …); assay: on JVM-3 cells
[9] = biological target: T1, CD70 on cells (CHO-CD70, JVM-3, U266, …); assay: on U266 cells

B1: 30-TC1.2-I-C08-1 (scFv)
scFv: QMQLVQSGAEVKKPGASVKVSCKASGYTFTSYGISWVRQAPGQGLEWMGWINPNTGGTDYAQKFQGRVTITRDTSITTGYMELSRLRSDDTAVYYCARHYYYGMDVWGQGTTVTVSSGGSGGSGGSGGSDIQLTQSPSSLSASVGDRVTITCQASQDISNYLNWYQQKPGKAPKLLIYDASNLETGVPSRFSGSGSGTDFTFTISSLQPEDIATYYCQQYDNLPLTFGGGTKVEIK
notes: His-tagged
cell binding [1]: 17400
anti His/HRP [2]: 1.83
strep/HRP [3]: 1.5
Kd [4]: 67.3 nM
cell binding [5]: 503000
cell binding [6]: 37400

B2: 14-TC6-I-F03 (scFv)
scFv: QVQLVQSGAEVKKPGASVKVSCKASGYTFTGYYMNWVRQAPGQGLEWMAWINPNTGDTNYAQKFQGRVTMTRDTSINTAYIELSRLTSDDTAVYYCARVGDYYDRSGYYRHDAFDIWGQGTMVTVSSGGSGGSGGSGGSSSELTQDPAVSVALGQTVRITCQGDSLRSYYASWYQQKPGQAPVLVIYGKNNRPSGIPDRFSGSNSGNTATLTISGTQAMDEADYYCQAWDSSTVFGGGTKVTVL
notes: His-tagged
cell binding [1]: 1430
anti His/HRP [2]: 2.47
strep/HRP [3]: 0.954
Kd [4]: 289 nM
cell binding [5]: 33400
cell binding [6]: 1880

B3: 1-TC4-I-C10 (scFv)
scFv: EVQLVQSGAEVKKPGESLKISCKGSGYSFTSYWIGWVRQMPGKGLEWMGIIYPGDSDTRYSPSFQGQVTISADKSISTAYLQWSSLKASDTAMYYCAISRTESYVMDVWGQGTTVTVSSGGSGGSGGSGGSQSALTQPRSVSGSPGQSVTISCTGTSSDVGGYNYVSWYQQHPGKAPKLMIYDVTNRPSGVPDRFSASKSDNTATLTVSGVQAEDEADYYCSSYAGSHELFGGGTKLTVL
notes: His-tagged; also called 1867
cell binding [1]: 48800
anti His/HRP [2]: 2.83
strep/HRP [3]: 0.075
Kd [4]: 6.17 nM
cell binding [5]: 978000
cell binding [6]: 73300

B4: 35-TC6-VII-A09 (scFv)
scFv: EVQLVQSGGGVVQPGRSLRLSCAASGFTFSSYGMHWVRQAPGKGLEWVAVISYDGSNKYYADSVKGRFTISRDNSKNTLYLQMNSLRAEDTAVYYCAKAGAPPHYYYGMDVWGQGTTVTVSSGGSGGSGGSGGSQSALTQPASVSGSPGQSITISCTGTSSDVGGYDYVSWYQQHPGKAPKLMIYEVTDRPSGIPNRFSGSKSGNTASLTISGLQAEDEADYYCSSYTYTSTLEVFGGGTKVTVL
notes: His-tagged
cell binding [1]: 16500
anti His/HRP [2]: 0.639
strep/HRP [3]: 1.49
Kd [4]: 367 nM
cell binding [5]: 1.15e+06
cell binding [6]: 18800

B5: 59-TC4-VII-F02 (scFv)
scFv: QLQLQESGPGLVKPSGTLSLTCAVSGGSISSSNWWSWVRQPPGKGLEWIGEIYHSGSTNYNPSLKSRVTISVDKSKNQFSLKLSSVTAADTAVYYCAGPGPDPNDAFDIWGQGTMVTVSSGGSGGSGGSGGSSSELTQDPAVSVALGQTVRITCQGDSLRSYYASWYQQLPGTAPKLLIYQDSKRPSGIPERFSGSNSGNTATLTISGTQAMDEADYYCQAWDSSTAVFGGGTKLTVL
notes: His-tagged
cell binding [1]: 18500
anti His/HRP [2]: 2.06
strep/HRP [3]: 1.43
Kd [4]: 101 nM
cell binding [5]: 850000
cell binding [6]: 52100

B6: 13-TC7-I-E11 (scFv)
scFv: QVQLQQWGAGLLKPSETLSLTCAVYGGSFSGYYWSWIRQPPGKGLEWIGEINHSGSTNYNPSLKSRVTISVDTSKNQFSLKLSSVTAADTAVYYCARSRRPYWYFDLWGRGTLVTVSSGGSGGSGGSGGSQSVLTQPPSVSGAPGQRVTISCTGSSSNIGAGYDVHWYQQLPGTAPKLLIYGDSNRPSGVPDRFSGSGSGTSASLAITGLQAEDEGDYYCQSFDSNLSRYVFGAGTKLTVL
notes: His-tagged
cell binding [1]: 32000
anti His/HRP [2]: 2.29
strep/HRP [3]: 1.42
Kd [4]: 44.7 nM
cell binding [5]: 532000
cell binding [6]: 80500

B7: 43-TC4-VII-C04 (scFv)
scFv: QVQLLESGGGLVQPGRSLRLSCAASGFTFDDYAMHWVRQAPGKGLEWVSGISWNSGSIGYADSVKGRFTISRDNAKNSLYLQMNSLRAEDTAVYYCARDLVYYYGMDVWGQGTTVTVSSGGSGGSGGSGGSQSVLTQPPSVSGTPGQGVSISCSGSSSNIGWKTVNWYQQVPGMAPKLLIYSDNQRPSGVPDRFSGSKSATSASLAISGLQSEDEADYYCASWDASVNAPVFGGGTKLTVL
notes: His-tagged
cell binding [1]: 20000
anti His/HRP [2]: 1.81
strep/HRP [3]: 1.44
Kd [4]: 69.9 nM
cell binding [5]: 723000
cell binding [6]: 45000

B8: 14-TC4-III-A04 (scFv)
scFv: QVQLVQSGAEVKKPGASVKVSCKASGYTFTGYYMNWVRQAPGQGLEWMAWINPNTGDTNYAQKFQGRVTMTRDTSINTAYIELSRLTSDDTAVYYCARVGDYYDRSGYYRHDAFDIWGQGTMVTVSSGGSGGSGGSGGSSSELTQDPAVSVALGQTVRITCQGDSLRSYYASWYQQKPGQAPVLVIYGKNNRPSGIPDRFSGSSSGNTASLTITGAQAEDEADYYCQAWDSSTGVFGGGTKVTVL
notes: His-tagged
cell binding [1]: 20400
anti His/HRP [2]: 2.81
strep/HRP [3]: 0.359
Kd [4]: 13.7 nM
cell binding [5]: 610000
cell binding [6]: 17000

B9: 58-TC7-III-G11 (scFv)
scFv: EVQLVQSGGGVVQPGRSLRLSCAASGFTFSSYAMHWVRQAPGKGLEWVAVISYDGSNKYYADSVKGRFTISRDNSKNTLYLQMNSLRAEDTAVYYCATNSGYDSDYYYGMDVWGQGTTVTVSSGGSGGSGGSGGSQSVLTQPPSMSGAPGQRVTISCTGSSSNIGAGYDVHWYQHLPGTGPKLLIHGNTNRPSGVPDRFSGSKSGTSASLAITGLQAEDEADYYCQSYDNSLGGYVVFGGGTKVTVL
notes: His-tagged
cell binding [1]: 12000
anti His/HRP [2]: 1.97
strep/HRP [3]: 0.503
Kd [4]: 8900 nM
cell binding [5]: 277000
cell binding [6]: 14700

B10: 13G6 (antibody, V domains shown)
VH: QVQLVESGGGVVQPGKSLRLSCAASGFTFSNYGIHWVRQAPGKGLEWVAVIWYDGSYKYYADSVKGRFTISRDNSKNTLYLQMNSLRAEDTALYYCARDTVDTYGSFDYWGQGTLVTVSS
VL: DIQLTQSPSFLSASVGDRVTITGRASQGISSYLAWYQQKPGKAPNLLIYAASTLQSGVPSRFSGSGSGTEFTLTISSLQPEDFATYYCQQHNRYPITFGQGTRLEIK
notes: alloy mouse hybridoma antibody; also called 13G6E8
cell binding [7]: 144000
cell binding [8]: 479000
cell binding [9]: 389000

B11: 9A11 (antibody, V domains shown)
VH: QVQLVESGGGVVQPGRSLRLSCAASGFTFSNYGMYWVRQAPGKGLEWVAVIWYDGSKKYYGDSVKGRFTISRDNSKNTLYLQMNSLRAEDTAVYYCARDEDTVMASFDYWGQGTLVTVSS
VL: B10 VL with G23C, G28D, S31I, N45Q, Y87S, H91L, R93S, Q100G, R103K, L104V
notes: alloy mouse hybridoma antibody; also called 9A11E8
cell binding [7]: 145000
cell binding [8]: 410000
cell binding [9]: 351000

B12: 14-TC4-XIII-A01 (scFv)
scFv: QVQLVQSGAEVKKPGASVKVSCKASGYTFTGYYMNWVRQAPGQGLEWMAWINPNTGDTNYAQKFQGRVTMTRDTSINTAYIELSRLTSDDTAVYYCARVGDYYDRSGYYRHDAFDIWGQGTMVTVSSGGSGGSGGSGGSSSELTQDPAVSVALGQTVRITCQGDSLRSYYASWYQQKPGQAPVLVIYGKNNRPSGIPDRFSGSSSGNTASLTITGAQAMDEADYYCQAWDSSTGVVFGGGTKVTVL
notes: His-tagged
cell binding [1]: 953
anti His/HRP [2]: 1.74
strep/HRP [3]: 1.46
Kd [4]: 2830 nM
cell binding [5]: 111000
cell binding [6]: 1290
